Test system: peptide library, one residue held at a place counted from the Y acceptor
Assay: relative phosphorylation of the sub-library (ratio to the mean residue at this position); higher = residue favoured
Summary of the method: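 Purified recombinant kinases were given 50 μM ATP with γ-32P-ATP and biotinylated Tyr-centred peptide library mixtures for 90 min in 384-well plates. Peptides bound to streptavidin membranes were rinsed and quantified by phosphorimaging, and intensities were normalized per position by the sum of the 18 randomized residues (16 with the Ser/Thr-free library) and multiplied by that number. The reported values are phosphorylation relative to the mean randomized residue.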

Sequence of ABL2, construct: aa38-end, human (P42684 38-1182, looked up): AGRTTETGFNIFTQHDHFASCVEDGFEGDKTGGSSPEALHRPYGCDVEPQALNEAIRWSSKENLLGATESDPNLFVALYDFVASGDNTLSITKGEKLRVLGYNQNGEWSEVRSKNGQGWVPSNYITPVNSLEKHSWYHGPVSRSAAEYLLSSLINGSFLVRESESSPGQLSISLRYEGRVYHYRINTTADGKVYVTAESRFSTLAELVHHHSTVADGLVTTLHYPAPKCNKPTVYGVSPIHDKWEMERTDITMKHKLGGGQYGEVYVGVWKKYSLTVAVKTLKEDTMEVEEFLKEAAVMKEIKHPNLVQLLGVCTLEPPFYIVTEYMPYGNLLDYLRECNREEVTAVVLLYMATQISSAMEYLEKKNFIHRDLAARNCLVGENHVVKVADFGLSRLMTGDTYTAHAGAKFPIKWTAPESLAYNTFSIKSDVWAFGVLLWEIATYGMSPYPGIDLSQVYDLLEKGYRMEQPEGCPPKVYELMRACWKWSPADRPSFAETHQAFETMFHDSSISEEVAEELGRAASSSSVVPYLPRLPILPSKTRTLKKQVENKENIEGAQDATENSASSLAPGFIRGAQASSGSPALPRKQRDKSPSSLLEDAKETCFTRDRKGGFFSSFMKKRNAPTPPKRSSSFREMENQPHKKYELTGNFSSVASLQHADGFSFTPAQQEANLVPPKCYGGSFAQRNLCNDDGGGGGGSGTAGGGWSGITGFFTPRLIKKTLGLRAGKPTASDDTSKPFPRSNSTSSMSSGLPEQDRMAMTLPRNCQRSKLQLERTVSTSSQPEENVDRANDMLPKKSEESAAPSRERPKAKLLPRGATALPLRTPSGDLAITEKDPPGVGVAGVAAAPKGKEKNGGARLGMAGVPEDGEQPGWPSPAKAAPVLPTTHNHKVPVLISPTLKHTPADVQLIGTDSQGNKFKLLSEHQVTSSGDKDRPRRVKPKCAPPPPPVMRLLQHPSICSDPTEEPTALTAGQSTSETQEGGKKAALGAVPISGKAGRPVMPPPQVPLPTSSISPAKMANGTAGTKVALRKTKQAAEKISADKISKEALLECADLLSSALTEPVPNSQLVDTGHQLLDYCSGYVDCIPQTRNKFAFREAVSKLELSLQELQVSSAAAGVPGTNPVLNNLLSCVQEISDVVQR
Sequence of EPHB4, construct: aa561-end, human (P54760 561-987, looked up): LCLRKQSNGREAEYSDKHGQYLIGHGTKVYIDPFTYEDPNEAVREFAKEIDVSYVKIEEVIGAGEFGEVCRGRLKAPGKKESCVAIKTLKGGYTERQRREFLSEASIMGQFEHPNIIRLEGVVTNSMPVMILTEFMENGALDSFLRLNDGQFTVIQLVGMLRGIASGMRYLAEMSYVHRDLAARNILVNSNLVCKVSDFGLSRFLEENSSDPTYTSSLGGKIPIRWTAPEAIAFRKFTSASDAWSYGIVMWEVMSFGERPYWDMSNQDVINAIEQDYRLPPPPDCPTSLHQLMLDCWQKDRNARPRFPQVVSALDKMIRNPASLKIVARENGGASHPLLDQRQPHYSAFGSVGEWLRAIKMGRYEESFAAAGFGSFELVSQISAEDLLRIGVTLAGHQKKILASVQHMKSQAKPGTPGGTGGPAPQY
Sequence of SRMS, construct: aa221-486, human (Q9H3Y6 221-486, looked up): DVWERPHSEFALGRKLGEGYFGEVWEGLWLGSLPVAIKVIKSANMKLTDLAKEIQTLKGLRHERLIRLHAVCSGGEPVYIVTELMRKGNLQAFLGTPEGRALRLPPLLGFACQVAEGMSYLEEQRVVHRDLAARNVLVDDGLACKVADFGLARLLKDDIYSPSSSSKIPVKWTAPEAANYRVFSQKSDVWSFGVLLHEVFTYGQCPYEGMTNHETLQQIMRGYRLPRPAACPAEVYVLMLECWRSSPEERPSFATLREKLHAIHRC

EPHB4, construct: aa561-end, human (from UniProt P54760)
relative phosphorylation
Conditions | at +1 | at +2 | at +3 | at +4 | at +5 | at -1 | at -2 | at -3 | at -4 | at -5
A fixed | 2.01 | 0.93 | 0.981 | 0.836 | 0.988 | 0.59 | 1.26 | 0.954 | 1.17 | 1.05
D fixed | 0.98 | 0.854 | 0.481 | 0.969 | 1.18 | 2.38 | 1.15 | 1.32 | 1.09 | 1.12
E fixed | 2.09 | 1.19 | 0.409 | 1 | 0.934 | 1.38 | 1.07 | 1.52 | 1.14 | 0.945
F fixed | 0.651 | 1.15 | 1.06 | 1.01 | 0.879 | 0.933 | 0.628 | 1.16 | 0.904 | 0.895
G fixed | 1.03 | 0.54 | 0.694 | 1.16 | 1.22 | 0.36 | 1.17 | 0.986 | 1.39 | 1.38
H fixed | 0.482 | 0.782 | 1.08 | 1.16 | 0.89 | 0.577 | 0.911 | 0.93 | 0.941 | 0.998
I fixed | 1.02 | 1.19 | 1.47 | 0.663 | 0.675 | 1.91 | 0.772 | 0.996 | 0.965 | 0.775
K fixed | 0.404 | 0.755 | 0.464 | 0.907 | 0.959 | 0.357 | 0.99 | 0.674 | 0.953 | 1.05
L fixed | 0.774 | 0.955 | 1.49 | 0.792 | 0.77 | 1.77 | 0.834 | 0.82 | 0.797 | 0.838
M fixed | 1.36 | 0.914 | 1.25 | 0.969 | 0.934 | 0.806 | 0.722 | 0.8 | 0.962 | 0.949
N fixed | 0.489 | 1.05 | 0.698 | 0.947 | 1.03 | 2.07 | 1 | 1.13 | 0.889 | 1.03
P fixed | 0.319 | 0.821 | 1.46 | 1.29 | 1.45 | 0.513 | 1.6 | 1.21 | 1.35 | 1.27
Q fixed | 1.35 | 1.03 | 0.884 | 1.04 | 1.02 | 0.501 | 1.13 | 0.863 | 1.12 | 0.907
R fixed | 0.455 | 1.08 | 0.624 | 1.14 | 1.13 | 0.389 | 1 | 0.871 | 0.989 | 1.17
S fixed | 1.05 | 0.937 | 0.945 | 0.974 | 1.18 | 0.572 | 1.57 | 1 | 0.915 | 0.953
T fixed | 0.833 | 1.1 | 0.832 | 0.984 | 1.05 | 1.08 | 0.863 | 0.843 | 0.696 | 0.905
V fixed | 1.75 | 1.37 | 1.73 | 0.792 | 0.716 | 1.04 | 0.758 | 0.825 | 0.874 | 0.8
W fixed | 0.957 | 1.36 | 1.45 | 1.36 | 0.991 | 0.773 | 0.567 | 1.1 | 0.859 | 0.97
pThr fixed | 1.45 | 1.7 | 0.467 | 0.855 | 0.682 | 1.61 | 0.917 | 0.96 | 0.855 | 0.898
pTyr fixed | 1.36 | 3.59 | 0.719 | 0.965 | 1.04 | 2.25 | 0.931 | 1.17 | 1.08 | 1.11

SRMS, construct: aa221-486, human (from UniProt Q9H3Y6)
relative phosphorylation
Conditions | at +1 | at +2 | at +3 | at +4 | at +5 | at -1 | at -2 | at -3 | at -4 | at -5
A fixed | 1.61 | 0.852 | 0.745 | 0.969 | 1.04 | 0.678 | 1.08 | 0.923 | 1.13 | 1.02
D fixed | 1.27 | 1.37 | 0.647 | 1.09 | 1.1 | 0.76 | 1.3 | 1.33 | 1.22 | 1.14
E fixed | 2.77 | 1.87 | 0.602 | 1.41 | 1.23 | 0.764 | 1.61 | 1.88 | 1.18 | 1.07
F fixed | 0.567 | 0.976 | 1.42 | 0.922 | 0.996 | 1.49 | 0.718 | 1.05 | 1.1 | 1.01
G fixed | 0.832 | 0.583 | 0.964 | 1.15 | 1.18 | 0.296 | 1.01 | 1.07 | 1.08 | 1.18
H fixed | 0.66 | 0.783 | 0.837 | 1.11 | 0.897 | 1.13 | 0.924 | 0.961 | 0.842 | 0.87
I fixed | 1.26 | 1.07 | 2.19 | 0.812 | 0.864 | 2.65 | 0.963 | 0.778 | 0.816 | 0.921
K fixed | 0.273 | 0.451 | 0.291 | 0.736 | 0.714 | 0.317 | 0.605 | 0.62 | 0.767 | 0.91
L fixed | 0.788 | 1.07 | 1.56 | 0.795 | 0.92 | 1.98 | 0.921 | 0.839 | 1.03 | 0.919
M fixed | 1.12 | 1.01 | 1.31 | 1.13 | 1.02 | 1.2 | 0.837 | 1.03 | 0.991 | 0.995
N fixed | 0.539 | 1.17 | 0.534 | 0.818 | 0.958 | 0.564 | 1.08 | 1.26 | 0.945 | 1.08
P fixed | 0.16 | 0.742 | 1 | 1.27 | 1.59 | 0.546 | 1.22 | 0.923 | 1.23 | 1.21
Q fixed | 1.2 | 0.857 | 0.847 | 1.05 | 0.891 | 0.591 | 1.05 | 0.819 | 1.12 | 1.01
R fixed | 0.361 | 0.635 | 0.397 | 0.871 | 0.768 | 0.351 | 0.576 | 0.671 | 0.867 | 0.946
S fixed | 1.12 | 1.07 | 0.784 | 0.971 | 1 | 0.5 | 1.12 | 1.04 | 0.882 | 0.971
T fixed | 1.12 | 1.26 | 1.01 | 0.923 | 1 | 1.26 | 0.998 | 1.01 | 0.754 | 0.879
V fixed | 1.35 | 1.07 | 1.6 | 0.884 | 0.896 | 1.83 | 1.13 | 0.792 | 0.849 | 0.903
W fixed | 1.01 | 1.16 | 1.27 | 1.09 | 0.942 | 1.1 | 0.856 | 0.994 | 1.2 | 0.962
pThr fixed | 2.26 | 2.43 | 0.579 | 1.07 | 0.972 | 1.2 | 1.19 | 1.02 | 0.958 | 1.03
pTyr fixed | 2.12 | 3.06 | 1.02 | 1.47 | 1.07 | 1.38 | 1.44 | 1.51 | 1.27 | 1.21

ABL2, construct: aa38-end, human (from UniProt P42684)
relative phosphorylation
Conditions | at +1 | at +2 | at +3 | at +4 | at +5 | at -1 | at -2 | at -3 | at -4 | at -5
A fixed | 2.85 | 1.32 | 0.871 | 0.935 | 1.01 | 0.717 | 1.18 | 1.04 | 1.16 | 1.1
D fixed | 0.701 | 0.534 | 0.245 | 0.662 | 0.681 | 1.01 | 1.01 | 1.23 | 1.32 | 1.07
E fixed | 0.884 | 1.2 | 0.199 | 0.735 | 0.686 | 1.45 | 1.38 | 1.88 | 1.69 | 1.13
F fixed | 1.07 | 0.802 | 1.21 | 1.18 | 0.822 | 0.756 | 0.548 | 0.786 | 0.675 | 0.828
G fixed | 1.26 | 0.647 | 1.23 | 1.2 | 1.27 | 0.49 | 1.24 | 1.15 | 1.33 | 1.29
H fixed | 1.06 | 0.833 | 0.868 | 1.13 | 1.02 | 1.62 | 0.933 | 1.02 | 0.859 | 1.12
I fixed | 0.517 | 0.843 | 1.46 | 0.736 | 0.781 | 2.9 | 0.867 | 0.598 | 0.774 | 0.716
K fixed | 0.636 | 0.836 | 0.439 | 1.2 | 1.15 | 0.425 | 0.846 | 0.785 | 0.926 | 1.01
L fixed | 0.857 | 0.904 | 1.47 | 0.813 | 0.85 | 1.55 | 0.885 | 0.758 | 0.87 | 0.831
M fixed | 1.18 | 0.923 | 0.861 | 1.04 | 1.05 | 1.05 | 0.742 | 0.852 | 0.907 | 0.909
N fixed | 0.492 | 1.06 | 0.756 | 0.988 | 1.02 | 0.674 | 1.11 | 1.25 | 0.871 | 1.27
P fixed | 0.161 | 1.14 | 2.59 | 0.968 | 1.57 | 0.556 | 1.36 | 1.26 | 1.34 | 1.24
Q fixed | 1.33 | 0.97 | 0.472 | 1.14 | 0.969 | 0.856 | 1.21 | 0.957 | 1.21 | 1.08
R fixed | 1.03 | 1.27 | 0.684 | 1.43 | 1.4 | 0.451 | 0.896 | 0.883 | 1.07 | 1.18
S fixed | 1.16 | 1.24 | 1.18 | 0.997 | 1.13 | 0.495 | 1.18 | 1.12 | 0.812 | 0.966
T fixed | 0.802 | 1.42 | 1.09 | 0.919 | 1.11 | 1.03 | 1.05 | 1.11 | 0.74 | 0.923
V fixed | 0.938 | 1.33 | 0.988 | 0.872 | 0.79 | 1.54 | 1.13 | 0.771 | 0.828 | 0.84
W fixed | 1.05 | 0.737 | 1.39 | 1.04 | 0.69 | 0.421 | 0.422 | 0.552 | 0.623 | 0.506
pThr fixed | 0.853 | 1.01 | 0.2 | 0.405 | 0.454 | 0.971 | 1.03 | 1.36 | 1.07 | 1.06
pTyr fixed | 1.61 | 1.79 | 0.391 | 0.696 | 0.52 | 3.96 | 1.26 | 1.9 | 1.49 | 1.26
